B1: TMEM192 (parent)
chain: ILGKVILWILHLLLECYIQYHHSK

Variants of: B1
Assay: protein stability index of a GFP-peptide fusion (GPS, HEK-293T) (PSI 1-6); higher = more stable
Conditions: c terminus: a fixed tail appended
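Further: lentivirally expressed fusions sorted by FACS into six bins by GFP to DsRed ratio, PSI derived from sequencing read proportions per bin multiplied by bin number.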

Protein stability index of substitutions, site by site:
L13: P 3.39, Q 2.11, R 2.37, S 2.98, T 2.88, V 2.8, W 2.21, Y 2.97
L14: A 2.08, C 2.25, D 3.16, E 3.72, F 2.75, G 3.05, H 3.19, I 3.72, K 2.31, M 2.95, N 3.68, P 3.38, Q 2.28, R 2.71, S 2.43, T 3.98, V 4.41, W 1.68, Y 3.51
E15: A 3.03, C 2.82, D 2.1, F 2.44, G 2.81, H 3.19, I 3.52, K 2.68, L 3.05, M 2.76, N 3.35, P 3.23, Q 3.19, S 2.14, T 2.4, V 3.17, Y 2.69
C16: A 3.38, D 2.6, E 2.48, F 2.6, G 3.5, I 2.95, K 3.66, M 3.3, N 3.32, P 2.88, Q 2.86, S 5.42, T 3.84, W 2.31, Y 3.21
Y17: A 2.48, C 2.8, D 2.2, E 3.46, F 3.16, G 3.49, H 3.22, I 3.59, K 2.99, L 2.59, M 2.85, N 3.47, P 3.26, Q 2.67, R 2.2, S 3.71, T 1.81, W 3.9
I18: A 4.65, C 2.4, D 2.61, E 2.99, F 3.01, G 2.71, H 2.59, K 3.4, L 3.64, M 2.03, N 1.48, P 2.44, Q 3.46, R 2.36, S 2.74, T 2.31, V 3.96, W 3.7, Y 2.24
Q19: A 2.58, C 3.13, D 3.64, E 3.03, F 2.49, G 3.15, H 2.44, I 2.76, K 2.25, L 4.51, M 2.97, N 2.91, P 2.26, R 2.9, T 2.57, V 3.16, W 2.36, Y 3.49
Y20: A 2.9, C 3.13, D 2.2, E 3.48, F 1.26, G 2.11, H 1.97, K 2.51, L 3.1, M 3.73, N 2.5, P 3.57, Q 4.39, R 1.94, S 3.62, T 4.2, V 3.38, W 2.22
H21: D 4.02, E 3, F 3.45, G 3.35, I 3.57, K 3.49, L 2.36, M 2.86, N 1.95, P 2.65, R 1.92, S 2.67, T 2.54, V 3.35, W 2.55, Y 4.47
H22: A 2.94, C 1.54, D 3.4, E 2.6, F 2.56, G 2.63, I 2.33, K 3.66, L 1.94, M 1.96, P 2.33, S 3.42, T 2.36, V 2.95, W 3.65, Y 3.11
S23: A 2.08, D 2.57, E 2.49

— the supplement of paper PMC10567573
